Assay results: paper PMC2241861

T1: TWINKLE Δ372-684 (human, UniProt Q96RR1 43-371, del372-684)
T1 sequence: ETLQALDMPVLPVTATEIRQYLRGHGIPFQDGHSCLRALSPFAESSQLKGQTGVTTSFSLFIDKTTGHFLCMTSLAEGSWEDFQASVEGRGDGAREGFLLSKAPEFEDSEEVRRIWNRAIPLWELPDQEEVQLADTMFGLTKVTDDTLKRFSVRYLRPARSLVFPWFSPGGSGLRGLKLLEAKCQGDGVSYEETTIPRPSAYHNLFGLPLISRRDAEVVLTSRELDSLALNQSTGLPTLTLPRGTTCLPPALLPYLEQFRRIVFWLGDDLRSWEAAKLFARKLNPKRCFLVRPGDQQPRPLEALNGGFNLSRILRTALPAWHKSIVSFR

T2: TWINKY (human, UniProt Q96RR1-2 43-582, del579-684)
T2 sequence: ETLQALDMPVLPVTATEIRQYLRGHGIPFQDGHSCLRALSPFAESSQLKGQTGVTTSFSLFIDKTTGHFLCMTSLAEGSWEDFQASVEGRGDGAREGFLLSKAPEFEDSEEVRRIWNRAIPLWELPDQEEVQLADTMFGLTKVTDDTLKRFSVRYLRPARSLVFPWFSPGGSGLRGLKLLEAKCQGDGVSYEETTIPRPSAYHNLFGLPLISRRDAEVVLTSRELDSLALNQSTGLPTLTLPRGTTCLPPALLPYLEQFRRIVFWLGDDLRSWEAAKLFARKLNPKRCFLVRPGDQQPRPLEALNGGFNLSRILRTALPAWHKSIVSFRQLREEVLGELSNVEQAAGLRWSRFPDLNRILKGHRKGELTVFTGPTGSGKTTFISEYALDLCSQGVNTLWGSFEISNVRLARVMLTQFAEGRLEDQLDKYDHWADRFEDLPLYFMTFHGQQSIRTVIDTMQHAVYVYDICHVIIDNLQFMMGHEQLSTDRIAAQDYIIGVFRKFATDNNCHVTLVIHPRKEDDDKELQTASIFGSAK

T3: TWINKLE wt (lacks mitochondrial targeting sequence 1-42) (human, UniProt Q96RR1 43-684)
T3 sequence: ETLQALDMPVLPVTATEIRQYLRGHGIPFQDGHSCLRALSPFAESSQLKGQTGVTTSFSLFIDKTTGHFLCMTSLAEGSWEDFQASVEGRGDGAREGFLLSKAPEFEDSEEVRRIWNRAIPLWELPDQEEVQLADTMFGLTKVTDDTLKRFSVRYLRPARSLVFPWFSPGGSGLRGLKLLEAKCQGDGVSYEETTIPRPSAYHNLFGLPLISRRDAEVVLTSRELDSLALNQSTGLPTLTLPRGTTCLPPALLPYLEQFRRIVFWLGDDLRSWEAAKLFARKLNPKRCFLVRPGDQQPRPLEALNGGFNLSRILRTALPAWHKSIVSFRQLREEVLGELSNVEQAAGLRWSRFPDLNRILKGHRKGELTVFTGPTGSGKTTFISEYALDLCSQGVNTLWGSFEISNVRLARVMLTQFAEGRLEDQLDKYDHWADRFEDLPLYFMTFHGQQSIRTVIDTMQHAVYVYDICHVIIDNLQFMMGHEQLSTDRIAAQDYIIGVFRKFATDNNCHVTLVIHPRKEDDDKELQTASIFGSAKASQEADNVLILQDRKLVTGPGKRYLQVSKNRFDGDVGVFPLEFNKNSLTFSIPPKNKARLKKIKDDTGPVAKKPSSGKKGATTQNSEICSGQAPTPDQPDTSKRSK

T4: TWINKLE Δ1-121 (human, UniProt Q96RR1 122-684, del1-121)
T4 sequence: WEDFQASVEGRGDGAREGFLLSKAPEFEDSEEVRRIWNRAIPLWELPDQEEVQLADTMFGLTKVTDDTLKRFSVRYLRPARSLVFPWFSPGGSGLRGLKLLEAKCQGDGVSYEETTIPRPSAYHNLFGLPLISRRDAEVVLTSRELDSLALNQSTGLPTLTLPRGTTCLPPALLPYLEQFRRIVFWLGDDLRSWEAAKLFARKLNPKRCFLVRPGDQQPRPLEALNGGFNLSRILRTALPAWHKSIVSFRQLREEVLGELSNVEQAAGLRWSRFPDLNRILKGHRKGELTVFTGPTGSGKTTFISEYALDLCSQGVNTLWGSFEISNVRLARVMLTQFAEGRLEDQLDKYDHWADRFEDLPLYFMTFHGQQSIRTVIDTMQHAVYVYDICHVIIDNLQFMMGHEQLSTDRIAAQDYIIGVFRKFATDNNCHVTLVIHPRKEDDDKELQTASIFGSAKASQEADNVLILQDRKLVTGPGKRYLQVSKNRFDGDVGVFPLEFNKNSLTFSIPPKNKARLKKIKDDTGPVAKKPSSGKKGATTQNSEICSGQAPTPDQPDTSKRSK

B1: ss30 poly-dT (ssDNA)
DNA: TTTTTTTTTTTTTTTTTTTTTTTTTTTTTT
B2: ds30 (dsDNA)
DNA 1: TGGCACGACAGGTTTCCCGACTGGAAAGCG
DNA 2: CGCTTTCCAGTCGGGAAACCTGTCGTGCCA
B3: ss15 poly-dT (ssDNA)
DNA: TTTTTTTTTTTTTTT
B4: ss45 poly-dT (ssDNA)
DNA: TTTTTTTTTTTTTTTTTTTTTTTTTTTTTTTTTTTTTTTTTTTTT
B5: ds15 (dsDNA)
DNA 1: CTCTAGACTCGACCG
DNA 2: CGGTCGAGTCTAGAG
B6: ds45 (dsDNA)
DNA 1: TGGCACGACAGGTTTCCCGACTGGAAAGCGGGCAGTCAGCTCTAG
DNA 2: CTAGAGCTGACTGCCCGCTTTCCAGTCGGGAAACCTGTCGTGCCA

Tests used:
Test in all cases: EMSA
[1] = molecular target: T1, TWINKLE Δ372-684
[2] = molecular target: T2, TWINKY
[3] = molecular target: T3, TWINKLE wt (lacks mitochondrial …)
[4] = molecular target: T4, TWINKLE Δ1-121
[5] = molecular target: T3, TWINKLE wt (lacks mitochondrial …); remark: listed apart in the source

Binder | binding result [1] | binding result [2] | Kd [3] | binding result [4] | binding result [5]
B1 | no binding | no binding | ~5 nM | – | –
B2 | no binding | no binding | ~5 nM | binds | –
B3 | – | – | – | – | no binding
B4 | – | – | – | – | binds
B5 | – | – | – | – | binds
B6 | – | – | – | – | binds
